Measurements: the supplement of paper PMC10126150
± gives the standard deviation of the averaged measurements.

What follows are sequences tested on ATP (assay: switch fluorescence ratio, 500 uM ATP over buffer (Cy3 cluster intensity, sum of 5 cycles each) (fold (ratio)); higher = stronger signal-on switching upon ATP binding; sequences stand for … in TCGTCGGCAGCGTCAGATGTGTATAAGAGACAGTTTTTTTTTTTTTTTTTTTTTTTTT…TC). Conditions: aptamer strand: ATP DNA aptamer (quencher-CACCTGGGGGAGTATTGCGGAGGAAGG + anchor), 100 nM annealed; ATP concentration: 500 uM.
In short: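 Exposure to 500 uM ATP lasted 15 min at 22 °C before imaging, and a selection-buffer image was taken beforehand, for Cy3-labelled switching-strand clusters on a modified Illumina MiSeq flow-cell annealed to 100 nM quencher-labelled ATP aptamer. Five buffer/ATP cycles were run with NaOH stripping and re-annealing between them. The fluorescence ratio per cluster is summed target-cycle over summed buffer-cycle Cy3 intensity, averaged per switch-domain sequence. Clusters outside 100-1000 RFU were excluded.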

| Sequence | switch fluorescence ratio |
| --- | --- |
| CTGGGAACGG | 0.965 ± 0.052 |
| CGTACATGAT | 1.02 ± 0.022 |
| CGGAACTGGT | 1.04 ± 0.058 |
| AGGGGTTTGT | 1.02 ± 0.017 |
| AGTAAAGTTC | 1.03 ± 0.028 |
| TTTTGGTTTG | 1 ± 0.034 |
| ATGGTTCAAT | 0.987 ± 0.029 |
| CGGTGGGGGT | 0.988 ± 0.022 |
| CCGCGCACCG | 1.73 ± 0.053 |
| TTTAGCTTTA | 0.9735 ± 0.0092 |
| TTTTGCACTT | 1.022 ± 0.0012 |
| GGTCTCAAGA | 0.993 ± 0.023 |
| TGGAAAAGGT | 1.0134 ± 0.00089 |
| TTATGTTTG | 1.012 ± 0.0031 |
| GGGTGTAACT | 0.9812 ± 0.0074 |
| TTCGTATCGG | 0.978 ± 0.012 |
| TTGGGGTTTG | 0.975 ± 0.038 |
| GAGGGGCGAC | 0.974 ± 0.032 |
| TGTAGTGTTG | 1 ± 0.043 |
| CGGGTATACT | 1.1 ± 0.092 |
| CGCGTATGTT | 0.985 ± 0.026 |
| TTGCTGAGGA | 0.962 ± 0.015 |
| AGGGGAAGAA | 1 ± 0.019 |
| ATAGGGGCTA | 0.988 ± 0.02 |
| ATAGGTAGGC | 1.05 ± 0.072 |
| CCTTGTATAA | 1.07 ± 0.014 |

| Sequence | switch fluorescence ratio |
| --- | --- |
| ATATCCTTCA | 1.35 ± 0.43 |
| GTAAAGGGCG | 0.973 ± 0.021 |
| GACTGCTATA | 1.44 ± 0.043 |
| AGACGCCAAG | 1.01 ± 0.029 |
| GGGATTATTT | 0.972 ± 0.02 |
| GTTCTGGGGG | 0.984 ± 0.024 |
| CGATAACGGG | 1.07 ± 0.077 |
| GCAATCGGAG | 1.27 ± 0.025 |
| CTAGGGGTTC | 1.01 ± 0.046 |
| CCAGGGGCTG | 1.67 ± 0.89 |
| CGGGGTCAAC | 1.24 ± 0.39 |
| TCCCGTTTGA | 1.01 ± 0.016 |
| TTTTCTTGAA | 0.9852 ± 0.0038 |
| AAACGGGGTA | 1.01 ± 0.033 |
| CGGTTTGGGA | 0.994 ± 0.035 |
| AATGGGCCCT | 0.979 ± 0.047 |
| TAGGTAAAGT | 0.981 ± 0.03 |
| TCCAAGGCTT | 1.038 ± 0.0014 |
| GTGGTCTGCC | 0.958 ± 0.0044 |
| GGGTTGGGGC | 0.999 ± 0.049 |
| CTAGGGGGTA | 0.971 ± 0.035 |
| CAGGACACTA | 1.03 ± 0.026 |
| TCCGGGGGGG | 1.06 ± 0.094 |
| TTATGTCGAA | 0.98 ± 0.017 |
| CGATGACATG | 0.9877 ± 0.0082 |
| GGGAAGAGTG | 0.993 ± 0.02 |

| Sequence | switch fluorescence ratio |
| --- | --- |
| AGAAGAATTG | 1.04 ± 0.048 |
| ACGAGTAGGC | 0.986 ± 0.021 |
| GGAAAAAGCC | 0.9562 ± 0.0042 |
| CATTCGCCTC | 2.218 ± 0.015 |
| TCGATGGGGG | 0.942 ± 0.013 |
| CATAACTATT | 0.989 ± 0.015 |
| TGACTTGGAC | 1.02 ± 0.013 |
| ACCCCCCTGT | 1.37 ± 0.41 |
| GAATTCAAGG | 1.01 ± 0.082 |
| TAACAGGTAT | 1 ± 0.046 |
| ATCGAGTAGG | 1.008 ± 0.005 |
| TAGCGGGGTT | 0.9757 ± 0.0054 |
| AGGAAAAAAA | 2.85 ± 2.6 |
| TTTTACTTCT | 1.04 ± 0.062 |
| CGCGGATGGG | 1.05 ± 0.05 |
| AGTACATAGT | 0.99 ± 0.024 |
| CATTTGATTG | 0.988 ± 0.013 |
| ACAAACTGCA | 1.17 ± 0.067 |
| GAATGGTCCC | 1.02 ± 0.012 |
| AAATTAGGCG | 0.975 ± 0.021 |
| CTCCTTTTAT | 1.03 ± 0.029 |
| GAACAGTCCG | 1.051 ± 0.0039 |
| GGGTACGTTG | 1.01 ± 0.016 |
| CGATTCGTCT | 1.05 ± 0.05 |
| CTTATTAGGG | 0.986 ± 0.021 |
| GCGCGCCGGG | 1.01 ± 0.027 |

| Sequence | switch fluorescence ratio |
| --- | --- |
| GGGGTTGCTG | 1 ± 0.024 |
| AATGGTGGGG | 0.9912 ± 0.0053 |
| CGGTTTGTAT | 0.985 ± 0.023 |
| GAGAGTCTTC | 0.985 ± 0.0088 |
| ACATCATAAA | 0.988 ± 0.023 |
| AATAGGGCG | 1.038 ± 0.0084 |
| TTGAGAAGTT | 1.01 ± 0.021 |
| CGATGCTCTG | 1.01 ± 0.063 |
| CGAGGATTTC | 0.9885 ± 0.0094 |
| GGAGGGTGTC | 0.988 ± 0.044 |
| TAGTTGTCCC | 1.02 ± 0.045 |
| GGGGAATGGC | 1.05 ± 0.1 |
| ATTTGGTGGG | 0.97 ± 0.05 |
| CGTATTAGTA | 0.9926 ± 0.0054 |
| TTTTGGCGCT | 1.005 ± 0.008 |
| CCGGGTCGGG | 1.006 ± 0.0049 |
| TCGGTAATC | 1.15 ± 0.0017 |
| TCCTTTGGTC | 0.987 ± 0.022 |
| GATCAGAGGG | 1.008 ± 0.01 |
| ATTACGGAAC | 1.26 ± 0.018 |
| TATCAGACAG | 1.011 ± 0.0095 |
| AACGGGAATT | 1.039 ± 0.0056 |
| TGGCCTATCC | 1.17 ± 0.04 |
| TTCTTAACAT | 1.054 ± 0.01 |
| TTCTCTATGT | 1.01 ± 0.035 |
| ACCGGCCAGC | 1.002 ± 0.004 |

| Sequence | switch fluorescence ratio |
| --- | --- |
| CGGTAGGGGC | 0.968 ± 0.015 |
| AGCGTTGAGT | 0.985 ± 0.032 |
| CGCGCGGGTG | 1.121 ± 0.011 |
| TATCTGGGGG | 1.01 ± 0.055 |
| ATGCCAGGGA | 1.01 ± 0.023 |
| TCACGAACCT | 1.69 ± 0.1 |
| CTGGGTTGGG | 1.01 ± 0.043 |
| GGAATAAATG | 1.021 ± 0.009 |
| TGGTCCCGGA | 1 ± 0.017 |
| GAGACATGTT | 0.99 ± 0.065 |
| CTTCGGACGG | 1.24 ± 0.036 |
| TTTTGTTGTG | 0.999 ± 0.034 |
| GGGATTTCCG | 0.992 ± 0.018 |
| GAGTACTGTT | 0.972 ± 0.045 |
| ACATTGCGAC | 1.137 ± 0.0028 |
| TTTTTACTGT | 1.01 ± 0.017 |
| AGGGGTGGGA | 1.01 ± 0.02 |
| GAGCGGCGGG | 0.996 ± 0.026 |
| TCGTTTTAGC | 1.004 ± 0.0032 |
| TAAGGGCCTT | 0.992 ± 0.026 |
| TTTTTGTAAT | 1.04 ± 0.055 |
| TACTTTTGGA | 1.02 ± 0.04 |
| AGTTATCGAA | 1.009 ± 0.0036 |
| GTTGTAGCTG | 0.967 ± 0.015 |
| TTTTGTAGCT | 0.963 ± 0.023 |
| GGAGAGGGCT | 1.01 ± 0.024 |

| Sequence | switch fluorescence ratio |
| --- | --- |
| ACGTTAGTCG | 0.9687 ± 0.0095 |
| TTTGTACAAC | 1.01 ± 0.05 |
| CAGTTATAAT | 1.04 ± 0.016 |
| TTAGGGGTGT | 1.01 ± 0.022 |
| GCTAGTATAA | 0.987 ± 0.027 |
| TTTCAACGGT | 1.009 ± 0.0075 |
| ACTGGGGGTT | 0.994 ± 0.029 |
| TGTGTATCGG | 0.958 ± 0.034 |
| GTGGGTAATT | 0.995 ± 0.033 |
| TATTTTGTGA | 0.952 ± 0.018 |
| AAGGCGAGGA | 1.043 ± 0.0043 |
| TTAAAGCCTT | 1.03 ± 0.053 |
| GCAGCTGGTT | 0.994 ± 0.026 |
| CGAATGAGGT | 0.99 ± 0.04 |
| TTTGACTTTT | 0.994 ± 0.028 |
| AAAGTGTTGC | 1.05 ± 0.042 |
| TCAGTCAGTT | 0.991 ± 0.048 |
| GTTGGCCCGG | 0.997 ± 0.022 |
| AGCATTGTGG | 0.996 ± 0.018 |
| TCCATAGGGG | 1.53 ± 0.88 |
| ACTAAGTCTG | 1.02 ± 0.045 |
| TAGTTTCTAC | 0.992 ± 0.033 |
| AGGGTTTGCG | 1.04 ± 0.042 |
